Results: patent publication US6537965B1, “Amino-terminal modified parathyroid hormone (PTH) analogs” (The General Hospital Corporation, priority 1998, dated 2003)
“Also recorded” adds a separate entry of the source.

What was measured:
hPTH-1 receptors [1] = molecular target: T1, hPTH-1 receptors (Homo sapiens, UniProt Q03431); assay: radioligand competition binding to HKRK B28 cells; design: expressed in transfected cells; conditions: HKRK B28 cells, 280,000 human PTH-1 receptors/cell (FIG. 6)
T1 sequence (Q03431 27-593): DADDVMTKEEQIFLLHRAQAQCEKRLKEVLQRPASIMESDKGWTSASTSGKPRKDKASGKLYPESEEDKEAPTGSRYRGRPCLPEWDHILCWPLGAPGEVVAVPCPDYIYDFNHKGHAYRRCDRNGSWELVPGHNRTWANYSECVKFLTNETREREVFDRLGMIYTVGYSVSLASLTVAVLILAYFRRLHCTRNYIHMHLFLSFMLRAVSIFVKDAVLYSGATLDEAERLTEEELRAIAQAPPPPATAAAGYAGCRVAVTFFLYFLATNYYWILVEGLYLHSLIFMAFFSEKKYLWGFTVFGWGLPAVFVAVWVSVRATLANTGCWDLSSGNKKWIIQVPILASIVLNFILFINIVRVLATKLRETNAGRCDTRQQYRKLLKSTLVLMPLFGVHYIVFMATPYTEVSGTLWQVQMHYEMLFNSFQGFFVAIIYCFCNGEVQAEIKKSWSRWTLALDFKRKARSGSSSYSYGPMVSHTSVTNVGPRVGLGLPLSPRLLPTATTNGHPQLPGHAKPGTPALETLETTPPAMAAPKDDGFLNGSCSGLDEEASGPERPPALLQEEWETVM
Protocol: Radioligand competition binding assays were performed at 2-8° C. for 6 hr using ^125I-[Nle^8,21]rat PTH-(1-34) (100,000 cpm/well) in the presence or absence of non-radioactive hPTH-(1-34) analogs. Cell layers were washed three times before solubilization for determination of cell-associated radioactivity.

hPTH-1 receptors [2] = molecular target: T1, hPTH-1 receptors; assay: cAMP measurements in SaOS-2 cells; type: cell-based; design: expressed in transfected cells; conditions: SaOS-2 cells, 10,000-20,000 human PTH-1 receptors per cell; up to 1 uM (FIG. 2)
Text: (§1) The following cell lines were used in these studies. HKRK C53 subclones of LLC-PKI porcine renal epithelial cells which stably express human PTH-1 receptors (150,000 receptors/cell). SaOS-2 cells are transformed human osteosarcoma cells which express relatively few (10,000-20,000 per cell) human PTH-1 receptors. HPR2-7 cells are subclones of LLC-PK1 which express approximately 250,000 recombinant human PTH-2 receptors per cell. HKRK-B7 cells are subclones of LLC-PK which stably express approximately 1 million hPTH-1 receptors per cell. HPR2-22 cells are subclones of LLC-PK1 which express 1.5 million recombinant hPTH-2 receptors per cell. The HPR2-27 and HPR2-22 cell lines were created in the same fashion as the HKRK cells but employing instead type 2 PTH receptor cDNA using the transfection technique of (Bringhurst, F. R., et al., Endocrinology 132(5):2090-2098 (1993); Guo, J., et al., Endocrinology 136(9):3884-3891 (1995)).
(§2) Intracellular cAMP accumulation, PLC activation and PTHR binding affinity were measured as previously reported (Bringhurst, F. R., et al., Endocrinology 132(5):2090-2098 (1993); Guo, J., et al., Endocrinology 136(9):3884-3891 (1995)). Intracellular cAMP accumulation was measured in extracts of cells that were exposed to human PTH peptides in the presence of isobutylmethyxanthine (IBMX, 1 mM) at 37° C. for 15 min. After terminating the reactions by aspiration and freezing in liquid nitrogen, cell monolayers were extracted with 50 mM HCl and cAMP was measured using a radioimmunoassay kit (Dupont-New England Nuclear, Boston, Mass.).

hPTH-1 receptors [3] = molecular target: T1, hPTH-1 receptors; assay: PLC activation in HEK-293 cells transiently transfected with human PTHR cDNA; type: cell-based; design: expressed in transfected cells; host or cells: HEK-293 human embryonic kidney cells, transient transfection with Lipofectamine; conditions: HEK-293 cells transiently transfected with human PTHR cDNA (data not shown)
Protocol: (§3) PLC was activated by PTH agonists in the presence of 30 mM LiCl at 37° C. for 30 min after 16 hr of labeling with [^3H]myo-inositol (3uCi/ml) in serum-free medium containing 0.1% bovine serum albumin. The reactions were stopped by rapid aspiration and addition of cold 5% TCA. Water-soluble radiolabeled inositol trisphosphate (IP3) was isolated after ether extraction by ion-exchange chromatography (Guo, J., et al., Endocrinology 136(9):3884-3891 (1995)). In experiments involving HEK 293 cells, cells previously transfected with human PTHR cDNA (in the pcDNA1 expression vector HKRK) using Lipofectamine (Gibco BRL) were labeled with [^3H]myo-inositol and assayed as described above, except that total water-soluble [^3H]inositol polyphosphates were collected as a single fraction from the ion-exchange columns.

hPTH-2 receptors = molecular target: T2, hPTH-2 receptors (Homo sapiens, UniProt P49190); assay: phospholipase C activation in HPR2-22 cells; type: cell-based; conditions: 1.5 million hPTH-2 receptors per cell, 1,000 nM (FIG. 5)
T2 construct: expressed in transfected cells
Text: as §1, §3

hPTH-1 receptors [4] = molecular target: T1, hPTH-1 receptors; assay: AC activation in HKRK B7 cells; type: cell-based; design: expressed in transfected cells; conditions: HKRK B7 cells (large number of human PTH-1 receptors)
Text: as §1, §2

hPTH-1 receptors [5] = molecular target: T1, hPTH-1 receptors; assay: phospholipase C (PLC) activity in HKRK-B7 cells; type: cell-based; design: expressed in transfected cells; conditions: about 1 million hPTH-1 receptors per cell, 1000 nM (FIG. 4)
Text: as §1, §3

hPTH-1 receptors [6] = molecular target: T1, hPTH-1 receptors; assay: cAMP accumulation (adenylyl cyclase activation) in HKRK C53 cells; type: cell-based; design: expressed in transfected cells; conditions: HKRK C53 cells, about 150,000 hPTH-1 receptors per cell; 10^-9M and 10^-7M peptide (FIG. 1)
Text: as §1, with “HKRK-B7 cells are subclones of LLC-PK which stably express approximately 1 million hPTH-1 receptors per cell. HPR2-22 cells are subclones of LLC-PK1 which express 1.5 million recombinant hPTH-2 receptors per cell.” left out
as §2

human PTHRs [7] = molecular target: T3, human PTHRs (Homo sapiens, UniProt Q03431); design: host or cells: LLC-PK1, COS-7 or HEK 293 cells; conditions: human PTHRs in LLC-PK1, COS-7 or HEK 293 cells; cited from earlier work
T3 sequence (Q03431 27-593): T1 sequence (Q03431 27-593)

human PTHRs [8] = molecular target: T3, human PTHRs; design: host or cells: LLC-PK1, COS-7 or HEK 293 cells; conditions: human PTHRs in LLC-PK1, COS-7 or HEK 293 cells; cited from earlier work; remark: listed apart in the source

T2 sequence (P49190 25-550): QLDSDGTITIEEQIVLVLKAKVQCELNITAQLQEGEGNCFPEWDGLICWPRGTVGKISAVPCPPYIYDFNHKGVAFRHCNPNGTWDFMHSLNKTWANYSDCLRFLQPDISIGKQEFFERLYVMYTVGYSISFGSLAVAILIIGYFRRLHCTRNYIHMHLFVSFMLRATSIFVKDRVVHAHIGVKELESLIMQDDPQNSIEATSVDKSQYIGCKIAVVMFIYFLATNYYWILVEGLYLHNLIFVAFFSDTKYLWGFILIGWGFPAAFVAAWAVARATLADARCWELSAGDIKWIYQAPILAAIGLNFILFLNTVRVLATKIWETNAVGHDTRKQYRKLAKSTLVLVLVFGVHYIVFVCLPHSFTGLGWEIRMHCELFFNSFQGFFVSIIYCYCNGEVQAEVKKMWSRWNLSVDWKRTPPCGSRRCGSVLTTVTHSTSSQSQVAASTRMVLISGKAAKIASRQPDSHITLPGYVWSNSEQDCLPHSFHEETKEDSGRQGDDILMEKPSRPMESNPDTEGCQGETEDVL

competitive displacement of 125I-[Nle8,21]rPTH(1-34) radioligand binding (hPTH-1 receptors [1])	cyclase (cAMP) activity compared with control hPTH(1-34) (hPTH-1 receptors [2])	activation of PLC (hPTH-1 receptors [3])	activation of phospholipase C (hPTH-2 receptors)	activation of PLC (hPTH-1 receptors [5])	activation of PLC (hPTH-1 receptors [5]; listed as Human PTH(2-34))	cyclic AMP accumulation, efficacy compared with native hPTH(1-34)NH2 (hPTH-1 receptors [6])	Substance	activation of AC compared with hPTH-(1-34) (hPTH-1 receptors [4])	potency in activating AC compared with hPTH-(1-34) (human PTHRs [7])	potency in activating PLC compared with hPTH-(1-34) (human PTHRs [8])
binds as well	very weak agonists	inability	only a partial agonist	did not elicit PLC activity	inactive	similarly reduced activity	hPTH(2-34): N-truncated human PTH peptide, residues 2-34 (VSEIQLMHNLGKHLNSMERVEWLRKKLQDVHNF)	comparable in magnitude and sensitivity to that of hPTH-(1-34); also recorded: approximately equipotent	–	–
–	–	–	–	–	–	–	hPTH-(1-31): C-truncated human PTH peptide, residues 1-31	–	as potent as hPTH-(1-34)	as potent as hPTH-(1-34)
